This is an account of results in patent US20180118786A1 (ECOLE POLYTECHNIQUE FEDERALE DE LAUSANNE EPFL, published 2018).

Starred links: 1 amine or outer side, 2 acyl side, 3 side chain; linkers in the order of their positions; H or OH if unused. Positions of bridges follow the written chain, without caps; N, C: chain ends. Non-standard residues stand in square brackets, D forms with d. No end group written: not given here. TATA = O=C(CC[*:1])N1CN(C(=O)CC[*:2])CN(C(=O)CC[*:3])C1; Phe(4-NO2) = N[C@@H](Cc1ccc([N+](=O)[O-])cc1)C(=O)O; Phe(4-guanidino) = N=C(N)Nc1ccc(C[C@H](N)C(=O)O)cc1; Phe(3-Me) = Cc1cccc(C[C@H](N)C(=O)O)c1; Phe(4-F) = N[C@@H](Cc1ccc(F)cc1)C(=O)O; Phe(2-F) = N[C@@H](Cc1ccccc1F)C(=O)O; hArg = N=C(N)NCCCC[C@H](N)C(=O)O; 3Pal = N[C@@H](Cc1cccnc1)C(=O)O; Agb = N=C(N)NCC[C@H](N)C(=O)O

First the molecules themselves.
B1: peptide 38 (peptide 2, Arg4 to homolysine) (peptide)
peptide: H-RCF[homolysine]LPCRQLRCRW-NH2
modifications: linker 2-7-12 via TATA
B2: peptide 40 (peptide 2, Arg4 to norarginine) (peptide)
peptide: RCF[Agb]LPCRQLRCRW-NH2
modifications: linker 2-7-12 via TATA
notes: Number tied to residue by the order of the list
B3: peptide 26 (peptide 2, Leu10 to isoleucine) (peptide)
peptide: RCFRLPCRQIRCRW-NH2
modifications: linker 2-7-12 via TATA; N-terminus assumed
SMILES: CC[C@H](C)[C@@H]1NC(=O)[C@H](CCC(N)=O)NC(=O)[C@H](CCCNC(=N)N)NC(=O)[C@@H]2CSCCC(=O)N3CN(CN(C3)C(=O)CCSC[C@H](NC(=O)[C@@H](N)CCCNC(=N)N)C(=O)N[C@@H](Cc3ccccc3)C(=O)N[C@@H](CCCNC(=N)N)C(=O)N[C@@H](CC(C)C)C(=O)N3CCC[C@H]3C(=O)N2)C(=O)CCSC[C@@H](C(=O)N[C@@H](CCCNC(=N)N)C(=O)N[C@@H](Cc2c[nH]c3ccccc23)C(N)=O)NC(=O)[C@H](CCCNC(=N)N)NC1=O
B4: peptide 41 (peptide 2, Arg4 to 4-guanidinophenylalanine) (peptide)
peptide: RCF[Phe(4-guanidino)]LPCRQLRCRW-NH2
modifications: linker 2-7-12 via TATA; N-terminus assumed
SMILES: CC(C)C[C@@H]1NC(=O)[C@H](CCC(N)=O)NC(=O)[C@H](CCCNC(=N)N)NC(=O)[C@@H]2CSCCC(=O)N3CN(CN(C3)C(=O)CCSC[C@H](NC(=O)[C@@H](N)CCCNC(=N)N)C(=O)N[C@@H](Cc3ccccc3)C(=O)N[C@@H](Cc3ccc(NC(=N)N)cc3)C(=O)N[C@@H](CC(C)C)C(=O)N3CCC[C@H]3C(=O)N2)C(=O)CCSC[C@@H](C(=O)N[C@@H](CCCNC(=N)N)C(=O)N[C@@H](Cc2c[nH]c3ccccc23)C(N)=O)NC(=O)[C@H](CCCNC(=N)N)NC1=O
notes: as for B2
B5: peptide 39 (peptide 2, Arg4 to homoarginine) (peptide)
peptide: H-RCF[hArg]LPCRQLRCRW-NH2
modifications: linker 2-7-12 via TATA
notes: as for B2
B6: peptide 54 (peptide 2, carbon replaced with nitrogen in meta-position of the phenyl ring of Phe3) (peptide)
peptide: RC[3Pal]RLPCRQLRCRW-NH2
modifications: linker 2-7-12 via TATA; N-terminus assumed
SMILES: CC(C)C[C@@H]1NC(=O)[C@H](CCC(N)=O)NC(=O)[C@H](CCCNC(=N)N)NC(=O)[C@@H]2CSCCC(=O)N3CN(CN(C3)C(=O)CCSC[C@H](NC(=O)[C@@H](N)CCCNC(=N)N)C(=O)N[C@@H](Cc3cccnc3)C(=O)N[C@@H](CCCNC(=N)N)C(=O)N[C@@H](CC(C)C)C(=O)N3CCC[C@H]3C(=O)N2)C(=O)CCSC[C@@H](C(=O)N[C@@H](CCCNC(=N)N)C(=O)N[C@@H](Cc2c[nH]c3ccccc23)C(N)=O)NC(=O)[C@H](CCCNC(=N)N)NC1=O
B7: peptide 58 (peptide 2, fluorine in para-position of Phe3) (peptide)
peptide: RC[Phe(4-F)]RLPCRQLRCRW-NH2
modifications: linker 2-7-12 via TATA
B8: peptide 2 (FXII618 with a tryptophan appended to the C-terminus) (peptide)
peptide: RCFRLPCRQLRCRW-NH2
modifications: linker 2-7-12 via TATA; N-terminus assumed
SMILES: CC(C)C[C@@H]1NC(=O)[C@H](CCC(N)=O)NC(=O)[C@H](CCCNC(=N)N)NC(=O)[C@@H]2CSCCC(=O)N3CN(CN(C3)C(=O)CCSC[C@H](NC(=O)[C@@H](N)CCCNC(=N)N)C(=O)N[C@@H](Cc3ccccc3)C(=O)N[C@@H](CCCNC(=N)N)C(=O)N[C@@H](CC(C)C)C(=O)N3CCC[C@H]3C(=O)N2)C(=O)CCSC[C@@H](C(=O)N[C@@H](CCCNC(=N)N)C(=O)N[C@@H](Cc2c[nH]c3ccccc23)C(N)=O)NC(=O)[C@H](CCCNC(=N)N)NC1=O
B9: peptide 3 (peptide 2, Phe3 to tryptophan) (peptide)
peptide: RCWRLPCRQLRCRW-NH2
modifications: linker 2-7-12 via TATA; N-terminus assumed
SMILES: CC(C)C[C@@H]1NC(=O)[C@H](CCC(N)=O)NC(=O)[C@H](CCCNC(=N)N)NC(=O)[C@@H]2CSCCC(=O)N3CN(CN(C3)C(=O)CCSC[C@H](NC(=O)[C@@H](N)CCCNC(=N)N)C(=O)N[C@@H](Cc3c[nH]c4ccccc34)C(=O)N[C@@H](CCCNC(=N)N)C(=O)N[C@@H](CC(C)C)C(=O)N3CCC[C@H]3C(=O)N2)C(=O)CCSC[C@@H](C(=O)N[C@@H](CCCNC(=N)N)C(=O)N[C@@H](Cc2c[nH]c3ccccc23)C(N)=O)NC(=O)[C@H](CCCNC(=N)N)NC1=O
B10: peptide 60 (peptide 2, nitro group in para position of Phe3) (peptide)
peptide: RC[Phe(4-NO2)]RLPCRQLRCRW-NH2
modifications: linker 2-7-12 via TATA; also: description names 2-nitro-phenylalanine, example says para
B11: peptide 52 (peptide 2, methyl group in meta-position of the phenyl ring of Phe3) (peptide)
peptide: RC[Phe(3-Me)]RLPCRQLRCRW-NH2
modifications: linker 2-7-12 via TATA; N-terminus assumed
SMILES: Cc1cccc(C[C@@H]2NC(=O)[C@@H](NC(=O)[C@@H](N)CCCNC(=N)N)CSCCC(=O)N3CN4CN(C3)C(=O)CCSC[C@H](NC(=O)[C@@H]3CCCN3C(=O)[C@H](CC(C)C)NC(=O)[C@H](CCCNC(=N)N)NC2=O)C(=O)N[C@@H](CCCNC(=N)N)C(=O)N[C@@H](CCC(N)=O)C(=O)N[C@@H](CC(C)C)C(=O)N[C@@H](CCCNC(=N)N)C(=O)N[C@H](C(=O)N[C@@H](CCCNC(=N)N)C(=O)N[C@@H](Cc2c[nH]c3ccccc23)C(N)=O)CSCCC4=O)c1
B12: peptide 67 (FXII618, Arg1 to lysine) (peptide)
peptide: KCFRLPCRQLRCR-NH2
modifications: linker 2-7-12 via TATA; N-terminus assumed
SMILES: CC(C)C[C@@H]1NC(=O)[C@H](CCC(N)=O)NC(=O)[C@H](CCCNC(=N)N)NC(=O)[C@@H]2CSCCC(=O)N3CN(CN(C3)C(=O)CCSC[C@H](NC(=O)[C@@H](N)CCCCN)C(=O)N[C@@H](Cc3ccccc3)C(=O)N[C@@H](CCCNC(=N)N)C(=O)N[C@@H](CC(C)C)C(=O)N3CCC[C@H]3C(=O)N2)C(=O)CCSC[C@@H](C(=O)N[C@@H](CCCNC(=N)N)C(N)=O)NC(=O)[C@H](CCCNC(=N)N)NC1=O
B13: peptide 56 (peptide 2, fluorine in ortho-position of Phe3) (peptide)
peptide: RC[Phe(2-F)]RLPCRQLRCRW-NH2
modifications: linker 2-7-12 via TATA; N-terminus assumed
SMILES: CC(C)C[C@@H]1NC(=O)[C@H](CCC(N)=O)NC(=O)[C@H](CCCNC(=N)N)NC(=O)[C@@H]2CSCCC(=O)N3CN(CN(C3)C(=O)CCSC[C@H](NC(=O)[C@@H](N)CCCNC(=N)N)C(=O)N[C@@H](Cc3ccccc3F)C(=O)N[C@@H](CCCNC(=N)N)C(=O)N[C@@H](CC(C)C)C(=O)N3CCC[C@H]3C(=O)N2)C(=O)CCSC[C@@H](C(=O)N[C@@H](CCCNC(=N)N)C(=O)N[C@@H](Cc2c[nH]c3ccccc23)C(N)=O)NC(=O)[C@H](CCCNC(=N)N)NC1=O

T1 sequence (P00748 373-615 limits assumed, one chain of several): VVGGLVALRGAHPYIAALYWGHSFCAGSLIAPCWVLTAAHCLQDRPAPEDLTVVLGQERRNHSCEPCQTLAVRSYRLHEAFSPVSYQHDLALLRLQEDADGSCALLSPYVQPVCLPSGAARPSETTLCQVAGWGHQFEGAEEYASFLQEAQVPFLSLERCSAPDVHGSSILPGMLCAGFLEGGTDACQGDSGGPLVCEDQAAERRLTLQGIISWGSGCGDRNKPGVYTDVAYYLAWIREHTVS

The first experiment addresses T1, human β-FXIIa (HFXIIAB; Molecular Innovations) (human, UniProt P00748 354-362; P00748 373-615, limits assumed).
T1 construct: domain: catalytic domain; Bought; also called human b-FXIIa; human FXIIa
The experiment in a line: protease inhibition assay.
Take B1: the “fold reduction of affinity vs peptide 2” value was no less than 5 fold.
Same read-out and setting: next, B2: no less than 5 fold.
In the case of B3, the “fold reduction of activity vs peptide 2” value was 8 fold.
On to B4, for which the “fold reduction of affinity vs peptide 2” value was no less than 5 fold.
Same read-out and setting: next, B5: no less than 5 fold.

The target of another experiment is T1, human β-FXIIa (HFXIIAB; Molecular …). The experiment in a line: protease inhibition assay, fluorogenic substrate.
B6 yielded an inhibitory constant (Ki) of 8.4 nM.
With B7, the affinity, expressed as Ki, was 2.31 nM.
Turning to B8, the affinity corresponds to a Ki of 26 nM.
Still for that read-out and setting: next, B9: 26 nM; B10: 4.5 nM; B11: 10.4 nM.
The same measure, in the same setting: with B12 the figure was 27.4 nM; with B13, 13.1 nM.

Broadly, the Ki is the dissociation constant of the complex between target and ligand, obtained from inhibition or displacement. Read a high Ki as a looser hold on the target.
